Experimental data: patent US20100129800A1, “POLYMERS AND THEIR USE AS FLUORESCENT LABELS” (priority 2007, published 2010)
Ends that are not written are not given here. Nct = N-((2S,3R)-1,3-dihydroxybutan-2-yl)-(4a,10a-dihydro-10,11-diazabenzo[b]fluoren-10-yl)acetamide monomer; Qut = N-(1,3-dihydroxybutan-2-yl)-10H-indolo[3,2-d]quinoline-11-carboxamide monomer; Pht = N-((2S,3R)-1,3-dihydroxybutan-2-yl)-2-phenylquinoline-4-carboxamide monomer; Act = N-(1,3-dihydroxybutan-2-yl)acridine-9-carboxamide monomer; code p = not defined here; Agt = not defined here; Qgt = not defined here

Assays:
[1] = system: duplex structure of DNA; assay: Melting experiments (DNA-duplex stabilization); assay type: physicochemical; conditions: 1 M NaCl, 10 mM sodium phosphate buffer of pH=7; for Tm(° C.): 260 nm, 1° C./min; for ΔTm (° C.): versus unmodified oligonucleotide
Description: Appropriate oligonucleotides were dissolved in a solution containing 1 M NaCl, 10 mM sodium phosphate buffer of pH=7. UV Absorption spectra and melting experiments (absorbance vs temperature) were recorded in 1-cm path length cell by using a spectrophotometer, with a temperature controller and a programmed temperature increase rate of 1° C./min. Melting curves were recorded at 260 nm, and melting temperatures were measured at the maximum of the first derivatives of the melting curves.

[2] = Fluorescent properties of duplexes carrying fluorophores at the 3′-end; assay type: physicochemical; conditions: oligonucleotide duplex carrying fluorophore at the 3′-end
Description: Solid supports carrying oligomers with L-threoninol and 3-aminopropan-1,2-diol backbones were introduced on a DNA synthesizer and oligonucleotides were assembled using standard protocols. After the assembly of the desired DNA sequence, supports were treated with concentrated ammonia at 55° C. for a minimum of 6 hrs yielding oligonucleotides carrying oligomers of fluorophores at the 3′-end.
Two oligonucleotide sequences were synthetized (sequence 1: 5′-[…]-3′ sequence 2: 5′-[…]-3′) carrying different fluorophores at the 3′-end. Solid supports containing dimer and trimer fluorophores (prepared in examples 28-31) and standard protocols for oligonucleotide synthesis were used in order to obtain these modified oligonucleotides (Table 2). Ammonia deprotection was performed at 55° C. for 6 hours. The resulting solutions were concentrated to dryness. Then, the residue was dissolved in water and desalted through a NAP-10 column. Fractions containing oligonucleotides were analysed by HPLC and characterized by UV and MS spectrometry.
Next, the fluorescent properties of duplexes carrying fluorophores at the 3′-end was determined and the results are shown in Table 3: […]

| Substance | Tm(° C.) [1] [°C] | ΔTm (° C.) [1] | Emission (nm) [2] [nm] | Excitation (nm) [2] [nm] |
| --- | --- | --- | --- | --- |
| TTCCGGAA-p-Act-p-Pht: oligonucleotide 5′-TTCCGGAA-3′ carrying dimer Act-p-Pht at the 3′-end (DNA TTCCGGAA-{code p-Act-code p-Pht}; not fully specified; cysteine pairing not given here; reading uncertain; also: DNA oligonucleotide with 3'-Act-p-Pht dimer) | 43 | +8 °C | 440 | 336 |
| TTCCGGAA-p-Act-p-Qut-p-Nct: oligonucleotide 5′-TTCCGGAA-3′ carrying trimer Act-p-Qut-p-Nct at the 3′-end (DNA TTCCGGAA-{code p-Act-code p-Qut-code p-Nct}; not fully specified; cysteine pairing not given here; reading uncertain; also: DNA oligonucleotide with 3'-Act-p-Qut-p-Nct trimer) | 60 | +25 °C |  |  |
| TTCCGGAA-p-Act-p-Qut-p-Qut: oligonucleotide 5′-TTCCGGAA-3′ carrying trimer Act-p-Qut-p-Qut at the 3′-end (DNA TTCCGGAA-{code p-Act-code p-Qut-code p-Qut}; not fully specified; cysteine pairing not given here; reading uncertain; also: DNA oligonucleotide with 3'-Act-p-Qut-p-Qut trimer) | 44 | +9 °C | 436 | 352 |
| TTCCGGAA-p-Act-p-Qut: oligonucleotide 5′-TTCCGGAA-3′ carrying dimer Act-p-Qut at the 3′-end (DNA TTCCGGAA-{code p-Act-code p-Qut}; not fully specified; cysteine pairing not given here; reading uncertain; also: DNA oligonucleotide with 3'-Act-p-Qut dimer) | 44 | +9 °C | 485 | 351 |
| TTCCGGAA-p-Act: oligonucleotide 5′-TTCCGGAA-3′ carrying fluorophore Act at the 3′-end (DNA TTCCGGAA-{code p-Act}; not fully specified; cysteine pairing not given here; reading uncertain; also: DNA oligonucleotide with 3'-phosphate-linked Act) | 47 | +12 °C |  |  |
| TTCCGGAA-p-Agt: oligonucleotide 5′-TTCCGGAA-3′ carrying fluorophore Agt at the 3′-end (DNA TTCCGGAA-{code p-Agt}; not fully specified; cysteine pairing not given here; reading uncertain; also: DNA oligonucleotide with 3'-phosphate-linked Agt) | 47 | +12 °C |  |  |
| TTCCGGAA-p-Nct: oligonucleotide 5′-TTCCGGAA-3′ carrying fluorophore Nct at the 3′-end (DNA TTCCGGAA-{code p-Nct}; not fully specified; cysteine pairing not given here; reading uncertain; also: DNA oligonucleotide with 3'-phosphate-linked Nct) | 46 | +11 °C | 442 | 267 |
| TTCCGGAA-p-Pht: oligonucleotide 5′-TTCCGGAA-3′ carrying fluorophore Pht at the 3′-end (DNA TTCCGGAA-{code p-Pht}; not fully specified; cysteine pairing not given here; reading uncertain; also: DNA oligonucleotide with 3'-phosphate-linked Pht) | 41 | +6 °C |  |  |
| TTCCGGAA-p-Qgt: oligonucleotide 5′-TTCCGGAA-3′ carrying fluorophore Qgt at the 3′-end (DNA TTCCGGAA-{code p-Qgt}; not fully specified; cysteine pairing not given here; reading uncertain; also: DNA oligonucleotide with 3'-phosphate-linked Qgt) | 50 | +15 °C | 491 | 350 |
| TTCCGGAA-p-Qut-p-Qut: oligonucleotide 5′-TTCCGGAA-3′ carrying dimer Qut-p-Qut at the 3′-end (DNA TTCCGGAA-{code p-Qut-code p-Qut}; not fully specified; cysteine pairing not given here; reading uncertain; also: DNA oligonucleotide with 3'-Qut-p-Qut dimer) | 48 | +13 °C | 490 | 349 |
| TTCCGGAA-p-Qut: oligonucleotide 5′-TTCCGGAA-3′ carrying fluorophore Qut at the 3′-end (DNA TTCCGGAA-{code p-Qut}; not fully specified; cysteine pairing not given here; reading uncertain; also: DNA oligonucleotide with 3'-phosphate-linked Qut) | 44 | +9 °C | 492 | 349 |
